Results taken from IntAct's records for PubMed 26226295.

B1: EH domain-containing protein 3 (Homo sapiens), Q9NZN3 (parent)
chain: MFSWLGTDDRRRKDPEVFQTVSEGLKKLYKSKLLPLEEHYRFHEFHSPALEDADFDNKPMVLLVGQYSTGKTTFIRYLLEQDFPGMRIGPEPTTDSFIAVMQGDMEGIIPGNALVVDPKKPFRKLNAFGNAFLNRFVCAQLPNPVLESISVIDTPGILSGEKQRISRGYDFAAVLEWFAERVDRIILLFDAHKLDISDEFSEVIKALKNHEDKMRVVLNKADQIETQQLMRVYGALMWSLGKIVNTPEVIRVYIGSFWSHPLLIPDNRKLFEAEEQDLFRDIQSLPRNAALRKLNDLIKRARLAKVHAYIISSLKKEMPSVFGKDNKKKELVNNLAEIYGRIEREHQISPGDFPNLKRMQDQLQAQDFSKFQPLKSKLLEVVDDMLAHDIAQLMVLVRQEESQRPIQMVKGGAFEGTLHGPFGHGYGEGAGEGIDDAEWVVARDKPMYDEIFYTLSPVDGKITGANAKKEMVRSKLPNSVLGKIWKLADIDKDGMLDDDEFALANHLIKVKLEGHELPNELPAHLLPPSKRKVAE
partner: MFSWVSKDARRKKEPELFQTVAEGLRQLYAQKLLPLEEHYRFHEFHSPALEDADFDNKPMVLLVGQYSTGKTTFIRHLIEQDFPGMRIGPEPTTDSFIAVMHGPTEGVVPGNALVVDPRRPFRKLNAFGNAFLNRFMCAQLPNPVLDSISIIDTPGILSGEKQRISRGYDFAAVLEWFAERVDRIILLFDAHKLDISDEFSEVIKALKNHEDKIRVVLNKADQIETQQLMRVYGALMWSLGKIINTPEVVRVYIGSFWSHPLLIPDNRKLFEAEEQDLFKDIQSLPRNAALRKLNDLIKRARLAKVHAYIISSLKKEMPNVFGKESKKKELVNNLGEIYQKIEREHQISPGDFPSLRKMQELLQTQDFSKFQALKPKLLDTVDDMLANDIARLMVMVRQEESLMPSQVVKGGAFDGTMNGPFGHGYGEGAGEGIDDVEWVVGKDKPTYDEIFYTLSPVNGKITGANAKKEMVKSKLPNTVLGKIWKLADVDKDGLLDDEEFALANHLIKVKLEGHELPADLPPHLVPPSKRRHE

Assays:
[1] = variants of: B1; conditions: with ehd1_human EHD1, Q9H4M9
[2] = variants of: B1; conditions: with ehd1_human EHD1, Q9H4M9; remark: listed apart in the source

K511R
effect of a mutation on the interaction [1]: with no effect | effect of a mutation on the interaction [2]: decreasing interaction

K315R
effect of a mutation on the interaction [1]: with no effect

K315R;K511R
effect of a mutation on the interaction [1]: with no effect | effect of a mutation on the interaction [2]: disrupting interaction
